Residue numbers refer to the chain shown, from its start. “And” between values parts separate entries of the source, which are not always exact repeats. Equal entries are not always repeated. Where two headings read alike, the source gives them in different places.

In experiment [1] the target is T1, human Nectin-4 extracellular antigen hNectin-4-His (human, UniProt Q96NY8 32-349).
T1 construct: C-terminal 8xHis tag included
T1 sequence: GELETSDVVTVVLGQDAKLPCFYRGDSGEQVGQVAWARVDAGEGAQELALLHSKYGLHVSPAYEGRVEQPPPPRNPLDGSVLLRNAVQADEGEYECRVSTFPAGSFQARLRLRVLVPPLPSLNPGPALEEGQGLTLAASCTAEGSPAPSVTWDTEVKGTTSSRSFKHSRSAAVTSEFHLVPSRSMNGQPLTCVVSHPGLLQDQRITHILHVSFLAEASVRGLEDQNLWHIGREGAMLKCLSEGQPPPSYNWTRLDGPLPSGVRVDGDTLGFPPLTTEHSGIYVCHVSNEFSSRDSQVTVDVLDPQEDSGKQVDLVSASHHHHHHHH
The experiment is described as follows: ELISA, coated hNectin-4-His. The text has this: (§1) The binding activity of the antibodies was detected by ELISA.

Experiment [2] deals with T2, human Nectin-4, full length on cells (human, UniProt Q96NY8 32-510).
T2 construct: whole, on cells; T-47D cells positive for Nectin-4 expression; also called Nectin-4 on T-47D cells; CHO-Nectin-4
T2 sequence (looked up): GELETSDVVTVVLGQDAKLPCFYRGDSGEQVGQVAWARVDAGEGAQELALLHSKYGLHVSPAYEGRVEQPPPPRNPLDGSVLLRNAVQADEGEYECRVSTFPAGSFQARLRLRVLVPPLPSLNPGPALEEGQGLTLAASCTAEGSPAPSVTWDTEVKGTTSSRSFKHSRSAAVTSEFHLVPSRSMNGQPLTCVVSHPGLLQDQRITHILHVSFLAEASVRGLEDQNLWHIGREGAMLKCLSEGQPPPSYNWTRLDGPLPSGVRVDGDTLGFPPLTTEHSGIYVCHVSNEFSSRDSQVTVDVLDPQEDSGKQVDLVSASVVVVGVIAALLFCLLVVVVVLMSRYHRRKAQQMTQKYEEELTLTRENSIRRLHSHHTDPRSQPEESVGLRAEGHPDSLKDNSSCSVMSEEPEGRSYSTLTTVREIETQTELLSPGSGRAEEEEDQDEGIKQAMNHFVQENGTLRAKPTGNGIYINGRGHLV
The experiment is described as follows: flow cytometry on T-47D cells. How it is done:
In this study, the binding activity of different antibodies to T-47D cells positive for Nectin-4 expression was detected by FACS, and the EC₅₀ for the binding of antibodies to the cells was analyzed by a four-parameter method. The procedures are briefly described as follows: T-47D cells (the Cell Bank of Chinese Academy of Sciences, TCHu 87) were trypsinized; the antibodies were serially diluted and co-incubated with T-47D cells at 4° C. for 0.5-1 h, followed by the addition of the secondary PE-labeled anti-human Fc antibody (Invitrogen, 12-4998-82); the signal intensity of red fluorescence was detected on a flow cytometer, and curves were plotted using Graphpad Prism and the EC₅₀ was calculated.
On the technique in general: In flow cytometry, cells or beads pass a laser one at a time.

The target in experiment [3] is T2, human Nectin-4, full length on cells. The experiment in a line: flow cytometry, T-47D cells, antibody bound on ice, 0 h at 37 C. The method, then: (§2) In this assay, the relative amount of antibodies remaining on the cell surface after co-incubation at 37° C. for a certain period of time was detected by FACS to reflect the endocytosis efficiency. The procedures are briefly described as follows: T-47D cells (human ductal breast cancer cells, derived from the Cell Bank of Chinese Academy of Sciences, Cat.No. TCHu 87); the antibodies of interest were adjusted to 10 µg/mL and co-incubated with the cells on ice for 1 h; the cells were washed 3 times with pre-cooled PBS, and then placed at 37° C. and incubated for 0 h, 2 h and 4 h; 0.2% N₃Na was added to stop the endocytosis reaction; the cells were washed with PBS thrice, followed by the addition of the PE-labeled anti-human Fc secondary antibody (Invitrogen 12-4998-82); the cells were incubated at 4° C. for 30 min; the red fluorescence signal was detected on a flow cytometer.

The target in experiment [4] is T1, human Nectin-4 extracellular antigen …. The experiment in a line: SPR (BIAcore T200): antibody captured on a Protein A chip, hNectin-4-His injected at 0-100 nM, 1:1 fit. The sheet prints no unit; M is taken from the column head of Table 12 for the same fits. Table 12 prints 6.03E-09 for ASG-22, so the sheet's number differs from the text. An excerpt:
(§3) In this study, the affinity of the antibodies for the human Nectin-4 extracellular antigen was detected by surface plasmon resonance (SPR) technique (BIAcore: GE Healthcare, T200).
For orientation: SPR reads the build-up and loss of mass on a sensor chip optically.

Experiment [5] shares this target. The experiment in a line: ELISA, coated antigen.
The target in experiment [6] is T3, monkey cNectin-4 protein (ACRO, NE4-C52H4) (cynomolgus monkey, UniProt A0A2K5WES1 32-349).
T3 construct: bought; construct not described; also called cynomolgus monkey Nectin-4
T3 sequence: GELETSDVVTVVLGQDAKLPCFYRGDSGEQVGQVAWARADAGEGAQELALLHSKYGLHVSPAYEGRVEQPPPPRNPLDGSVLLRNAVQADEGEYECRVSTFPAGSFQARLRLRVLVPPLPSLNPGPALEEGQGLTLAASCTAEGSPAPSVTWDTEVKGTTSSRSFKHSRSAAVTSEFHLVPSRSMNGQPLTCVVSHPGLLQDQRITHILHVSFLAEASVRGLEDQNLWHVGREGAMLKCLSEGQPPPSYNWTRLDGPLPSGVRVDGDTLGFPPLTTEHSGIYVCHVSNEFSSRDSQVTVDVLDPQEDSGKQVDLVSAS
The experiment is described as follows: ELISA, coated antigen.

In experiment [7] the target is T4, mouse mNectin-4 protein (ACRO, NE4-M52H3) (mouse, UniProt Q8R007 31-347).
T4 construct: bought; construct not described; also called mouse Nectin-4
T4 sequence (looked up): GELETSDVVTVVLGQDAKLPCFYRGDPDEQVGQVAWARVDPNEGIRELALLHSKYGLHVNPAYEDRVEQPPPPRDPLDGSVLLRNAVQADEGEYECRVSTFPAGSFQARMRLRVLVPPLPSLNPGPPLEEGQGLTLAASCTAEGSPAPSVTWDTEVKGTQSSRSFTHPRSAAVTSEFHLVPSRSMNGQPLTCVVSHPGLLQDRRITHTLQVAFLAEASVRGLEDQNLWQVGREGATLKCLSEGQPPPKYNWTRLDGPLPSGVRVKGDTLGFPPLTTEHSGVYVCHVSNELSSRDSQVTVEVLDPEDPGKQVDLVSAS
The experiment in a line: ELISA, coated antigen.

Experiment [8] deals with T1, human Nectin-4 extracellular antigen …. The experiment is described as follows: ELISA, coated hNectin-4-His.
Description: as §1
The source holds these as a separate data set. Background: In an ELISA, binding on a coated surface is turned into a signal by an enzyme label.

Experiment [9] has the same target. The experiment in a line: SPR, antibody on Protein A chip, 1:1 fit.
Description: as §3

Experiment [10] shares this target. The experiment is described as follows: ELISA, coated hNectin-4-His.
Description: as §1
This is another data set of the same source.

For experiment [11], the target named is T2, human Nectin-4, full length on cells. The experiment in a line: flow cytometry, T-47D cells, antibody bound on ice, 0 h at 37 C. The method, then: as §2
The source holds these as a separate data set.

The target of experiment [12] is T1, human Nectin-4 extracellular antigen …. The experiment is described as follows: SPR, antibody on Protein A chip, hNectin-4-His analyte, 1:1 fit.
Description: as §3

Experiment [13] shares this target. The experiment in a line: ELISA, coated antigen.
Description: as §1
In this assay, the binding of different antibodies to human Nectin-4 homologous proteins hNectin-1 (ACRO, PV1-H5223), hNectin-2 (ACRO, PV2-H52E2), hNectin-3 (ACRO, PV3-H52E4), and hNectin-4-His was detected by ELISA to determine the specificity of the antibodies. For the methodology and procedures, see Example 4. Antigens of interest ([…]) were immobilized; after blocking, serially diluted antibodies (2-fold serially diluted from […]) were added, and HRP-labeled anti-human-Kappa secondary antibody was added for chromogenic reaction.
The source holds these as a separate data set.

B1: reference antibody ASG-22 (antibody, human IgG1, kappa, V domains shown)
VH: EVQLVESGGGLVQPGGSLRLSCAASGFTFSSYNMNWVRQAPGKGLEWVSYISSSSSTIYYADSVKGRFTISRDNAKNSLSLQMNSLRDEDTAVYYCARAYYYGMDVWGQGTLVTVSS
VL: DIQMTQSPSSVSASVGDRVTITCRASQGISGWLAWYQQKPGKAPKFLIYAASTLQSGVPSRFSGSGSGTDFTLTISSLQPEDFATYYCQQANSFPPTFGGGTKVEIKR
What is called EC50 is the midpoint of the concentration-response curve. Usually Kd stands for the equilibrium constant for the complex coming apart. Broadly, the koff is the first-order rate constant of dissociation. What is called kon is the second-order rate constant of association. Regarding B1, the EC50 in experiment [1] was 0.042 µg/mL; in [2], 0.118 µg/mL and 0.788 nM; in experiment [5] it was 0.035 µg/mL; in experiment [6] it was 0.033 µg/mL; in [7], 1.23 µg/mL; in [8] it was 0.042 µg/mL and 0.046 µg/mL. In addition, it took 0.019 µg/mL to reach a half-maximal effect in [10] (EC50). For the same molecule, the “MFI (mean fluorescence intensity) 0 h” value in experiment [3] came out at 58600 MFI; in experiment [11], 107000 MFI. The equilibrium dissociation constant (Kd) in [4] was 6.68 nM; in experiment [9] it was 10.1 nM and 10.9 nM; in experiment [12], 6.03 nM. The koff in [9] is 0.00581 s⁻¹ and 0.0059 s⁻¹; in [12] it was 0.00436 s⁻¹. The kon in experiment [9] is 577000 M⁻¹ s⁻¹ and 540000 M⁻¹ s⁻¹; in experiment [12], 723000 M⁻¹ s⁻¹.

B2: antibody 3A10 (antibody, human IgG1, kappa, V domains shown)
VH: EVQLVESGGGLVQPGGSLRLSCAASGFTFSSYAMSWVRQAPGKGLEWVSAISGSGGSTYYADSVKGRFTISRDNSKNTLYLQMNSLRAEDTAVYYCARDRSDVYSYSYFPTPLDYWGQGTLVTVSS
VL: B1 VL with V11L, G31S, W32Y, F46L, T53S, A91H, N92Y, S93T, F94T, G100Q
For the molecule B2, the concentration for a half-maximal effect (EC50) is 0.068 µg/mL in [1]; 0.186 µg/mL and 1.24 nM in experiment [2]; 0.062 µg/mL in experiment [13]; 0.037 µg/mL in experiment [5]; 0.042 µg/mL in experiment [6]; 0.037 µg/mL in [7]. The “MFI (mean fluorescence intensity) 0 h” value in experiment [11] was 105000 MFI. The Kd in experiment [12] was found to be 2.1 nM. This molecule also came in with a koff in experiment [12] of 0.000867 s⁻¹. Moreover, the kon in experiment [12] is 413000 M⁻¹ s⁻¹.

B3: antibody 1G7 (antibody, human IgG1, kappa, V domains shown)
VH: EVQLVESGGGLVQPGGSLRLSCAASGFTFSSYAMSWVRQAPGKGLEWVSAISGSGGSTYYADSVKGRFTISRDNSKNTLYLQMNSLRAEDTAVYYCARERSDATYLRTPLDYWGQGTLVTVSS
VL: B1 VL with V11L, G31S, W32Y, F46L, T53S, A91H, N92Y, S93T, F94T, G100Q
In the case of B3, the EC50 in experiment [1] was found to be 0.022 µg/mL. In experiment [12], this molecule displayed a Kd of 16.7 nM, a koff of 0.00631 s⁻¹ and a kon of 377000 M⁻¹ s⁻¹.

B4: antibody 10A4 (antibody, human IgG1, kappa, V domains shown)
VH: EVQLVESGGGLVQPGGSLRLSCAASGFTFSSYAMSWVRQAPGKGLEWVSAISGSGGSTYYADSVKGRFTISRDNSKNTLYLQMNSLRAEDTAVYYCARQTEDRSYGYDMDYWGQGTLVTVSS
VL: B1 VL with V11L, G31S, W32Y, F46L, T53S, A91H, N92Y, S93T, F94T, G100Q
In turn, B4 showed a concentration giving a half-maximal response (EC50) in experiment [1] of 0.041 µg/mL. In experiment [11], the “MFI (mean fluorescence intensity) 0 h” value is 107000 MFI. In experiment [12], this molecule registered a dissociation constant (Kd) of 6.71 nM, a dissociation rate constant (koff) of 0.00232 s⁻¹ and an on-rate (kon) of 346000 M⁻¹ s⁻¹.

B5: antibody 1B4 (antibody, human IgG1, kappa, V domains shown)
VH: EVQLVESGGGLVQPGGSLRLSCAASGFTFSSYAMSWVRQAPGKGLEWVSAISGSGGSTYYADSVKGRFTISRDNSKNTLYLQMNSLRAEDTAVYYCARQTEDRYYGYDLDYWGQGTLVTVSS
VL: B1 VL with V11L, G31S, W32Y, F46L, T53S, A91H, N92Y, S93T, F94T, G100Q
Regarding B5, the midpoint of the response in experiment [1], the EC50, lay at 0.025 µg/mL. Also, in [11], the “MFI (mean fluorescence intensity) 0 h” value amounted to 108000 MFI. In experiment [12], this molecule gave a Kd of 5.33 nM, a koff of 0.0032 s⁻¹ and a kon of 600000 M⁻¹ s⁻¹.

The values are drawn from patent publication US20260144882A1 (BIO THERA SOLUTIONS, published 2026).
